Source: publication PMC10433458 (Proceedings of the National Academy of Sciences of the …, 2023)
Read-outs that look alike come from different tables or passages of the source.

B1: phosphoribulokinase of A. thaliana (enzyme, A. thaliana (endogenous in leaves), UniProt P25697 47-395, looked up)
chain: AQETIVIGLAADSGCGKSTFMRRLTSVFGGAAKPPKGGNPDSNTLISDTTTVICLDDYHSLDRYGRKEQKVTALDPRANDFDLMYEQVKALKNGIAVEKPIYNHVTGLLDPPELIQPPKILVIEGLHPMFDERVRDLLDFSIYLDISNEVKFAWKIQRDMAERGHSLESIKASIEARKPDFDAFIDPQKQYADAVIEVLPTTLIPDDNEGKVLRVRLIMKEGVKYFSPVYLFDEGSTISWIPCGRKLTCSYPGIKFNYEPDSYFDHEVSVLEMDGQFDRLDELIYVESHLSNLSTKFYGEVTQQMLKHADFPGSNNGTGLFQTIVGLKIRDLYEQLIANKATARAEAKA
B2: phosphoribulokinase of C. reinhardtii (enzyme, UniProt P19824 32-375, looked up)
chain: DKDKTVVIGLAADSGCGKSTFMRRMTSIFGGVPKPPAGGNPDSNTLISDMTTVICLDDYHCLDRNGRKVKGVTALAPEAQNFDLMYNQVKALKEGKSVDKPIYNHVSGLIDAPEKIESPPILVIEGLHPFYDKRVAELLDFKIYLDISDDIKFAWKIQRDMAERGHSLESIKSSIAARKPDFDAYIDPQKKDADMIIQVLPTQLVPDDKGQYLRVRLIMKEGSKMFDPVYLFDEGSTISWIPCGRKLTCSFPGIKMFYGPDTWYGQEVSVLEMDGQFDKLEELIYVESHLSNTSAKFYGEITQQMLKNSGFPGSNNGTGLFQTIVGLKVREVYERIVKKDVVPV

Experiments:
SEC [1] = target: the molecule itself; assay: SEC
SEC [2] = target: the molecule itself; assay: SEC; remark: listed apart in the source

Protein	stoichiometry N (SEC [1])	stoichiometry N (SEC [2])
B1	2	
B2		2
